39 sequences from the supplement of paper PMC9170038 can be followed below.

In data set [1] the test system is MS2 coat protein. Briefly: apparent KD of MS2 coat protein, switch OFF state (with FMN for OFF switches, without FMN for ON switches); designed switch direction (-1 OFF switch, 1 ON switch): -1; higher = weaker reporter binding. The following applies: FMN input: 0 or 200 uM; Eterna round: R93 (includes R88 designs). The method in brief: (§1)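 Apparent KD stands for the median, per design, of fits to normalised cluster binding curves. The curves came from titrating on-chip-transcribed RNA switches on Illumina sequencing clusters with SNAP-549-labelled MS2 coat protein, twofold from 0.7 or 1.5 nM to 3 µM. Buffer was 100 mM Tris-HCl pH 7.5, 80 mM KCl, 4 mM MgCl2, without or with constant ligand.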

Data set [2] concerns MS2 coat protein. Briefly: apparent KD of MS2 coat protein, switch ON state; designed switch direction (-1 OFF switch, 1 ON switch): -1; higher = weaker reporter binding. The following applies: FMN input: 0 or 200 uM; Eterna round: R93 (includes R88 designs). The method in brief:
as §1

In the case of “AAAAAACAUGAGGAUCACCCAUGUAAGGAUAUGCAAGAAAGAAGAAAGAAAAGAAAAAGCAGAAGGUACAAAAA [Amethyst 71]”, the “apparent KD of MS2 coat protein” value in the data set with MS2 coat protein [1] worked out at 34.4 nM; in the data set with MS2 coat protein [2] it was 32.1 nM.
The corresponding values for “AAAAAACAUGAGGAUCACCCAUGUAAGGAUAUGCGAAAUAAAAGAAAUAAAAAGGAAAGCAGAAGGUACAUGAA [JL wbt mod 8]” are 84.4 nM and 27.2 nM.
The corresponding values for “AAAAAACAUGAGGAUCACCCAUGUAAGGAUAUGCUAGGAAAAAGAAAAAUAAAAACUAGCAGAAGGUAUAUGAA [JL wbt mod 12]” are 27.4 nM and 24.5 nM.
On to “AAAAAACAUGAGGAUCACCCAUGUAAGGAUAUGUAAAAUAAAAGAAAAAUAAAGAAAAGCAGAAGGUACAUGUA [JL wbt mod 16]”, for which the “apparent KD of MS2 coat protein” value in the data set on MS2 coat protein [1] was 44.5 nM; with MS2 coat protein [2], 40.4 nM.
The corresponding values for “AAAAAACAUGAGGAUCACCCAUGUCAGGAUAUCGUGCAGAAAAAAAAAAAAAACUGCACGAGAAGGGACAUGAA [Mod of jnicol]” are 94.9 nM and 42 nM.
Regarding “AAAAAACAUGAGGAUCACCCAUGUCAGGAUAUCUGUAAAAAUUAAAAAAAUAAAAUACAGAGAAGGGACAUAAA [Ex1: 606]”, the “apparent KD of MS2 coat protein” value with MS2 coat protein [1] was found to be 100 nM; in the data set with MS2 coat protein [2], 44 nM.
The corresponding values for “AAAAAACAUGAGGAUCACCCAUGUGAGGAUAUCGAAAAGUUAAAGAAAAAGACGAAAAUGAGAAGGCGCAAAAA [Fiskers Exclusion D1]” are 23.9 nM and 26.3 nM.
With “AAAAAACAUGAGGAUCACCCAUGUGAGGAUAUGAAAAAACAAAAAAAAAAGUAAUCAAUCAGAAGGCACAACAA [JR_Exc--1_Sub1210]”, the entries for the “apparent KD of MS2 coat protein” value in the data set with MS2 coat protein [1] and in the data set with MS2 coat protein [2] were 28.9 nM and 27.4 nM, respectively.
Taken in the same sequence, the figures for “AAAAAACAUGAGGAUCACCCAUGUGAGGAUAUGCAAAACCCAUAUAAAAAGAGAAAAAGCAGAAGGCACAAAAA [wbt round 1 mod]” were 40.4 nM and 25.8 nM.
Taken in the same sequence, the figures for “AAAAAACAUGAGGAUCACCCAUGUGAGGAUAUGCAUAAAAAAAAAAAAAAAAAAAAAUGCAGAAGGCACAUAAA [jn_bayonne]” were 78.5 nM and 40.1 nM.
Regarding “AAAAAACAUGAGGAUCACCCAUGUUAGGAUAUCGUGCAGAAAAAAAAAAAAAACUGCACGAGAAGGAACAAGGA [Brourd - Exclusion 1 - Sub 2]”, the “apparent KD of MS2 coat protein” value in the data set on MS2 coat protein [1] stood at 44.9 nM; in the data set with MS2 coat protein [2] it was 29.1 nM.
The corresponding values for “AAAAAAGCAGGAUAUACGAACAUGUCAAAAGACGUGAAGGGACAUGAGGAUCACCCAUGUAGAAGGGUUAAGAA [JL Stem Breaker 16]” are 36.8 nM and 179 nM.
Taken in the same sequence, the figures for “AAAAAAGGAGGAUAUACGAACAUGUCAAAAGACGUGAAGGGACAUGAGGAUCACCCAUGUAGAAGGUCUAAAAA [JL Part Open 35]” were 34.1 nM and 52.3 nM.
Taken in the same sequence, the figures for “AAAAACCUAGGAUAUACAUGAGGAUCACCCAUGUAAAGAAAAAAAAAGGGAAAAAAAAGUAGAAGGAGGAAGAA [JR_Exc003_Sub1201]” were 18.6 nM and 16.6 nM.
For the sequence “AAAAAGCGAGGAUAUACAUGAGGAUCACCCAUGUCAAAAGGUAAGACCGCAGAAAAAAGUAGAAGGCGCAAAAA [Exclusion3-01]”, the “apparent KD of MS2 coat protein” value with MS2 coat protein [1] is 172 nM; in the data set with MS2 coat protein [2] it was 68.1 nM.
Taken in the same sequence, the figures for “AAAAAGCGAGGAUAUACGAGUCAAAGAAAAGACAAAGGGAAACAUGAGGAUCACCCAUGUAGAAGGCGCAAAAA [Fiskers exclusion D2 62% 1]” were 134 nM and 23.7 nM.
Taken in the same sequence, the figures for “AAAAAGGCAGGAUAUACAAAAAAGAGAAGAGAGGAGGAGGGACAUGAGGAUCACCCAUGUAGAAGGGCCAAAAA [Karl Gunnar Myrdal]” were 32.5 nM and 31.5 nM.
The corresponding values for “AAAAAGGGAGGAUAUACAUGAGGAUCACCCAUGUAAAACGCGCCAACAAAGAAACAAAGUAGAAGGCCCAAAAA [Default title]” are 14.5 nM and 17.3 nM.
Take “AAAAAGGGAGGAUAUACAUGAGGAUCACCCAUGUAUCAGACGAAAAAGAGUCUGGAAUGUAGAAGGCCCAAAAA [65%, Moding Exclusion3-cac2, 3]”: the entries for the “apparent KD of MS2 coat protein” value in the data set with MS2 coat protein [1] and in the data set on MS2 coat protein [2] were 25 nM and 14.3 nM, respectively.
The corresponding values for “AAAAAGGGAGGAUAUGCAUACACACAAAAAAAAAAAAAGGGACAUGAGGAUCACCCAUGUAGAAGGCCCAAAAA [Dora Explored 5 - Jieux - Exclusion 2]” are 25.1 nM and 29.9 nM.
Taken in the same sequence, the figures for “AAAAAGGUAGGAUAUACAUGAGGAUCACCCAUGUACAUAAAUGGAGAAAAAAACAGUAGUAGAAGGGCCAAAAA [Ex3 Malc#10]” were 36.9 nM and 29.5 nM.
Taken in the same sequence, the figures for “AAAAAGUCAGGAUAUCGGAAAAUAAAAAUAAAAAUAAAAAACGAGAAGGGACAUGAGGAUCACCCAUGUAUGAC [Mat - Exclusion 4 - Mayanna - D114]” were 24.6 nM and 27.6 nM.
Regarding “AAAAAGUGAGGAUAUACAUGAGGAUCACCCAUGUGUAUAAAAAAAUACACAAAAGAAAGUAGAAGGCACUAAAG [Mat - Exclusion 3 - Mayanna mod - D109]”, the “apparent KD of MS2 coat protein” value in the data set with MS2 coat protein [1] came to 84.8 nM; with MS2 coat protein [2], 28.4 nM.
As for “AAAAAGUGAGGAUAUACAUGAGGAUCACCCAUGUGUAUAAAAAAUUACACAAAAGAAUGUAGAAGGCACUAAAA [JL Mayanne Mod Summer]”, the “apparent KD of MS2 coat protein” value in the data set on MS2 coat protein [1] worked out at 124 nM; with MS2 coat protein [2] it was 23.5 nM.
Taken in the same sequence, the figures for “AAAAAGUGAGGAUAUACGUUGAAGAGAAAACACAUCCAGGCGUAGAAGGCACAUGAGGAUCACCCAUGUACAAA [Ex4 Malc#7]” were 19.8 nM and 23.4 nM.
The corresponding values for “AAAAAGUGAGGAUAUGGUAAAAAAAAAAAAAAAAAAAAACUCCAGAAGGCACAUGAGGAUCACCCAUGUAAAAA [Jolly's Folly - Jieux - Exclusion 4]” are 5290 nM and 58.5 nM.
The corresponding values for “AAAAAGUGAGGAUAUGUCAAAAGUCACAAAAGUGACAAAAGACAGAAGGCACAUGAGGAUCACCCAUGUGAAAG [Mat - Exaclusion 4 - Eli mod - D53]” are 37.6 nM and 28.9 nM.
As for “AAAAAGUGAGGAUAUUCGGAUAGGAAAACGAAAACCUAUCCGAAGAAGGCACAUGAGGAUCACCCAUGUGAGAA [67% Ecls-II - Early G + late G segment 4]”, the entries for the “apparent KD of MS2 coat protein” value with MS2 coat protein [1] and with MS2 coat protein [2] were 51.3 nM and 26.5 nM, respectively.
Taken in the same sequence, the figures for “AAAAAGUUAGGAUAUACAUGAGGAUCACCCAUGUACAUAUAUGGAGAAUAUAGCAGUAGUAGAAGGGACAAAAA [EX2 Malc#13]” were 34.8 nM and 26.9 nM.
In the case of “AAAAAUCGAGGAUAUACAUGAGGAUCACCCAUGUGGGAACACGAUUACACAAAAGAAAGUAGAAGGCGAUAAAA [Ex 3 May 22]”, the results for the “apparent KD of MS2 coat protein” value in the data set on MS2 coat protein [1] and in the data set on MS2 coat protein [2] were 162 nM and 28.2 nM, respectively.
The corresponding values for “AAAAAUUGAGGAUAUACGUACAUGUCGAAAGACGUGAAGGGACAUGAGGAUCACCCAUGUAGAAGGCGAAAAAA [Mat - Exclusion 2 - JL mod - D73]” are 27.9 nM and 45.6 nM.
The corresponding values for “AAAACACAUGAGGAUCACCCAUGUGAGGAUAUGCGAGUGAAAAUAAAAAUAAAACAUAGCAGAAGGCACAAGGA [Amethyst 80]” are 45 nM and 35.9 nM.
Taken in the same sequence, the figures for “AAAACACAUGAGGAUCACCCAUGUGAGGAUAUGCUAUGGAAAAUAAAAAUAAAACAUAGCAGAAGGCACAAAGG [Denovo 18]” were 244 nM and 32.9 nM.
As to “AAAACGGUAGGAUAUACGAUUUGGUACUAGACCGAGGAACCACAUGAGGAUCACCCAUGUAGAAGGACCAAAAA [EX2 Malc#19]”, the figures for the “apparent KD of MS2 coat protein” value in the data set on MS2 coat protein [1] and with MS2 coat protein [2] were 14 nM and 13 nM, respectively.
On to “AAAACGUGAGGAUAUACAUGAGGAUCACCCAUGUGAAACAGGAAAAACUGAAAGAAAAGUAGAAGGCACGAAAA [Tweaking Eli]”, for which the figures for the “apparent KD of MS2 coat protein” value in the data set with MS2 coat protein [1] and with MS2 coat protein [2] were 44.4 nM and 29 nM, respectively.
The corresponding values for “AAAACUCGAGGAUAUGCAAAAUGAUUGCGAAAGCAAUCAAAACAUGAGGAUCACCCAUGUAGAAGGCGAGAAAA [Mat - Mod of Eli]” are 13 nM and 23.5 nM.
The corresponding values for “AAAACUGGAGGAUAUACAUGAGGAUCACCCAUGUGUGGAUGAGCUGAAACGGCAUCACGUAGAAGGCCACAAAA [Gilly Gone Silly 40 - Jieux - Exclusion 3]” are 45.2 nM and 35.3 nM.
Taken in the same sequence, the figures for “AAAACUGGAGGAUAUACAUGAGGAUCACCCAUGUGUGGAUGAGCUGUGUCGGCGUCAAGUAGAAGGCCACAAAA [Gilly Gone Silly 36 - Jieux - Exclusion 3]” were 43.1 nM and 36.7 nM.
“AAAAGACAUGAGGAUCACCCAUGUGAGGAUAUGACGUAAAGAAAGAAAGAAGAAAUCGUCAGAAGGCACACCUA [Mat - Exclusion 1 - Eli mod - D68]”: the “apparent KD of MS2 coat protein” value in the data set with MS2 coat protein [1] is 63.5 nM; in the data set with MS2 coat protein [2], 31.6 nM.
